# Assay: yeast display, Sf9 membrane polyspecificity reagent, FACS + sequencing; frameworks hold sequencing errors
# Summary of the method: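 Genes from sorted yeast were amplified by colony PCR, read by MiSeq 2 × 250 sequencing and filtered on CDR length. These cells carried a synthetic nanobody library in Saccharomyces cerevisiae BJ5465 and were sorted by FACS into low and high (top ~1%) gates on anti-HA and streptavidin fluorescence. Polyreactivity is labelled according to the gate of origin.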
row,Sequence,polyreactivity (PSR sort gate)
1,QVQLVESGGGLVQAGGSLRLSCDASGSILRYYAMGWYRQAPGKERELVADISTSGGSTYYADSVKGRFTISRDNAKNTVYLQMNSLKPEDTAVYYCAKPWYSSGFDYWGQGTQVTVSS,high polyreactivity
2,QVQLVESGGGLVQAGGSLRLSCDASGSTFAPNTMGWYRQAPGKVREFVADISFSGGSTYYADSVKGRFSISRDNAKNTVYLQMTSRKPEDTAVYYCNAYYSYWFTQYDYWGQGTQVTVSS,high polyreactivity
3,QVQLVESGGGLVQAGGSLRLSCDASGSTFDSYAMGWYRQAPGKERELVAAINQGGGSTYYADSVKGRFTISRDNAKNTVYLQMNSLKPEDTAVYYCGADRSGSFYKLDYWGQGTQVTVSS,low polyreactivity
4,QVQLVESGGGLVQAGGSLRLSCDASGSTFGRNAMGCYRQAPGKESELVAAITASGGRTYYADSVKGRFTISRDNAKNTVYLQMNSLKPEDTAVYYCAAASRVGFLYYYWGQGTQVTLSS,low polyreactivity
5,QVQLVESGGGLVQAGGSLRLSCDASGSTFKNYAMGWYRQAPGKERELVAGINWYGGRTYYADSVKGRFTISRDNAKNTVFLQMNSLKPEDTAVYYCAAALPGYGDYYYWGQGTQVTVSS,high polyreactivity
6,QVQLVESGGGLVQAGGSLRLSCDASGSTFRANAMGWYRQAPGKECELVAAISQSGGITYYADSVKGRFTISRDNAKNTVYLQMNCLKPEDTAVYYCAAKGSYSYDVGGPVYQRTYGYWGQGTQVTVSS,high polyreactivity
7,QVQLVESGGGLVQAGGSLRLSCDASGSTFRHYAMGWYRQAPGKERELVAAISSTGGSTYYADSVKGRFTISRDNAKNTVYLQMNSLKPEDTAVSYCAARRLYWGQGTQVTVSS,high polyreactivity
8,QVQLVESGGGLVQAGGSLRLSCDASGSTFTRYVMGGYRQPPGKERELVAVISSSAGSTYYADSVKGRFTISRDNAKNTVYLQMNSLKPEDTAVYYCAARYSAKHYGYGYWGQGTQVTVSS,high polyreactivity
9,QVQLVESGGGLVQAGGSLRLSCDASGTFYGKTMGWYRQAPGKERELVAVISIDGSTNYADSVKGRFTISRDNAKNTVYLQMNSLKPEDTAVYYCNARNQWRTVGKYDYWGQGTQVTVSS,low polyreactivity
10,QVQLVESGGGLVQAGGSLRLSCDPSGSIFYRNAMVWYRPAPGKERELVATITVNGGRTYYADSVKGRFTISRDNAKNTVYLQMNSLKPEDTAVYYCAKDVHRWYPYDYWGQGTQVTVSS,low polyreactivity
11,QVQLVESGGGLVQAGGSLRLSCDPSGYTLVDYAMGWYRQAPGKESELVAGISSGDSTYYADSVKGRFTISRDNAKNTVYLQMNSLKPEDTAVYYCNAGLKTIFLLYRWTLFDYWGQGTQVTVSS,high polyreactivity
12,QVQLVESGGGLVQAGGSLRLSCDSSGSIFGYYAMGWYRQAPGKERELVAAITSGGNTYYADSVKGRFTISRDNAKNTVYLQMNSLKPEDTAVYYCNAVWRTRDYDYWGQGTQVTVSS,low polyreactivity
13,QVQLVESGGGLVQAGGSLRLSCDSSGSIFYYYAMGWYRQAPGKERELVAAISRRGGSTYYADSVKVRFTISRDNAKNTVYLQMNSLKPVDTAVYYCAADSPRGYDYWGQCTQVTVSS,high polyreactivity
14,QVQLVESGGGLVQAGGSLRLSCEASGRIFGWYAMGWYRQAPGNERELVAALTNSGGSTYYADSVKGRFTISRDYEKNTVYFQMNRLKPEDTGVYFCAAESWIRRWYGGGKKYEYWGQGTQVTVSS,high polyreactivity
15,QVQLVESGGGLVQAGGSLRLSCGASGFTFRSYAMGWYRQAPGKEGELVATISSGGTTKYADSVQGRFTISRDNANNTVYLQMNSLKPEDTAVYYCAARTSVLGRNFNYWGQGTQVTVSS,high polyreactivity
16,QVQLVESGGGLVQAGGSLRLSCGASGFTFYGYAMGWYRHGPGKESELVAAITGSGARTNYADSVKGRFTISRDKAKNTVYLQMNSLKPEDTAVYYCNKVGVTRDGSTYRVREDDYWGQGTQVTVSS,high polyreactivity
17,QVQLVESGGGLVQAGGSLRLSCGASGFTIQRNAIVWSRQAPGKERELVAAITRGGSTYYADSVKGRFTISRDNAKNTVYLQMNSLKPEDTAVYYCAKRIFSSYIGYGYWGQGTQVTVSS,high polyreactivity
18,QVQLVESGGGLVQAGGSLRLSCGASGLTFVWYGMGWYRQAPGKERELVAAITRGGSTYYADSVKGRFTISRDNAKNTVYLQMNSVKPEDTAVYYCAARYKYTGYDYWGQGTQVTVSS,high polyreactivity
19,QVQLVESGGGLVQAGGSLRLSCGASGRIFRYYAMGWYRQAPGTDREVVAAITQRGGSTYADSVKGRFTISRDNAKKTVYLQMNSLKPEDTADYSCPYRGSFLYDYWGQGTQVTVSS,low polyreactivity
20,QVQLVESGGGLVQAGGSLRLSCGASGRIFSYYAMGWYRQAPGKERELVAAINTGGDTYYADSVKGRFTISRDNAKNTVYLQMNSLKPEDTAVYYCAAAYGWGYYYGYGYTPTYDYWGQGTQVTVSS,low polyreactivity
21,QVQLVESGGGLVQAGGSLRLSCGASGRIIGYNAMGWYRQAPGKERELVAVISTSGTITYYADSVKGRFTISRDNAKNTVYLQMNRLKPEDTAVYYCAARYYQRANGFGYCGQGTQVTVSS,low polyreactivity
22,QVQLVESGGGLVQAGGSLRLSCGASGRTFRPYAMGWYRQEPGKERELVAAITGGTRTYYADSVKGRFTISRDNAKNTVYLQMNSLKAEDTAVYYCAVGWAGRYDYWGQGTQVTVSS,low polyreactivity

row,Sequence,polyreactivity (PSR sort gate)
1,QVQLVESGGGLVQAGGSLRLSCGASGSNFWPNTMGWYRPAPGKERELVAGISFGGGSTYFADSVKGRFTISRDNAKNTVYLEMNRQKPEDTAVYYCNADDPGYAGPWYWVKYDYWGKGTQVTVSS,low polyreactivity
2,QVQLVESGGGLVQAGGSLRLSCGASGSTFGTYAMGWYRQAPGKERELVAAISWSGGSTYYADSVKGRFTISRDNAKNTVYLQMNSLNPEDTAVYWGQGTQVTVSS,low polyreactivity
3,QVQLVESGGGLVQAGGSLRLSCGASGSTFWWNAMGWYRQAPGKEREFVAAITARGTSTYYADSVKGRFTISRDNAKNTVYLQMNRLKPEDTAVYYCNTRLYGRYYSWYDYWGQGTQVTVSS,high polyreactivity
4,QVQLVESGGGLVQAGGSLRLSCGATGSIFKTYAMGWYRQAPGKERELVAAISQRGGSTYYADSVKGRFTISRDNAKNTVYLQMNSLKPEDTAVYYCAARYAYQSYLYRFDYWGQGTQVTVSS,high polyreactivity
5,QVQLVESGGGLVQAGGSLRLSCGAYGRTFRLYAMGWYRQAPAKERELVAAITRGGRTTYADSVKGRFTSSRDNAQNTVYLQMNSLKPEDTAVYYCAARYVERQTDYYYWGQGTQVTVSS,low polyreactivity
6,QVQLVESGGGLVQAGGSLRLSCGGSGNSFNSYALGWYRQAPGKEREFVAAISGSGSSTYYADSVMGRFTISRDNAKNTVYLQINSLKPEDTAVYYCAVPYYKRYIWSNRDYWGQGTQVTVSS,high polyreactivity
7,QVQLVESGGGLVQAGGSLRLSCGGSGRIFYSNAMGWYRQAPGKERELFAAIRYSGVRTYYADSLKGRFTISLDNEKNTVYLQMNSLNPEYTEVYYCNVYSRTHYQTYTDDYWGQGTQVNVSS,high polyreactivity
8,QVQLVESGGGLVQAGGSLRLSCGSSGSIFKTNAMGWYRQAPGKERELVAANTWRGGSTYYADSVKGRFTNSRDNAKNTVYLQRNSLKPEDTAVYYCAARQYYGAASYRYYYWGQGTQVTVSS,high polyreactivity
9,QVQLVESGGGLVQAGGSLRLSCHASGRIIVPYVMGWYRQAPGKERELVASISDSDTSTYYADSVKGRFTMSRDNAKNTVYLQMNSLKPEDTAVYYCNVDFWGQGTQVTVSS,low polyreactivity
10,QVQLVESGGGLVQAGGSLRLSCPASGFIFRRYVMGWYRQSPGKERELVAAISKSAVNTYYADSVKGRFTISRDNAKNTVYLQMNSLIPEDTEVYYCNKYGYKGGVGYDYWGQGTQVTVSS,high polyreactivity
11,QVQLVESGGGLVQAGGSLRLSCPASGFILQYNAMGWYRQAPGKERELVAAITRSGVSTHYADSVKGRFTISRDNAKNTVYLQMNSLKPEDTAVYYCARTGHSLYSRYYYWGQGTQVTVSS,low polyreactivity
12,QVQLVESGGGLVQAGGSLRLSCPASGFILYPYAMGWYRQAPGKERELVAAITSRGGRTYYADSVKGRFTISRDNAKNTVYLQMNSLKPEDTAVYYCAAKRTSYYAPLKYYSWGQGTQVTVSS,high polyreactivity
13,QVQLVESGGGLVQAGGSLRLSCPASGFTFGRYGMGWYRQAPGKERELVAGITWSGGSTSYADSVKGRFTISRDNAKNTVYLQMYSLIPEDTAVYYCATRARYTRVHGRRYAYDYWGQGTQVTVSS,high polyreactivity
14,QVQLVESGGGLVQAGGSLRLSCPASGFTFYRYAMGWYRQAPGKERELVASISWRGGNTYYADSVKGRFTISRDNEKNTVYLQMNSLKPEDTAVYYCAARGGVLKGYYYWGQGTQVTVSS,high polyreactivity
15,QVQLVESGGGLVQAGGSLRLSCPASGIIFYRYSMGWKRQAPGKERQFVAAISRGGGSTYYADSVKGRFTISRDNAKNTFYLQMNSLKPEDTAVYYCNARDTRVTVDQYSIKRMDYWGKGTQVTVSS,high polyreactivity
16,QVQLVESGGGLVQAGGSLRLSCPASGITFIYYAMGWYRQAPGKEREFVAAINYRGTSTYYADSVKGRFTISRDNPKNTVYLQMNSLKPEDTAVYYCAAGPRRTWYRSLGYSFYKYYYWGQGTQVTVSS,high polyreactivity
17,QVQLVESGGGLVQAGGSLRLSCPASGLTFGGNAMGWYRQEPGKERELVAAISWSDDTTDYADSVKGRFTISRDNAKNTVYLQMNSLKPEDTAVYYCAARLPFEHVDYWGQGTQVTVSS,low polyreactivity
18,QVQLVESGGGLVQAGGSLRLSCPASGNIFVYYAMGWSRQAHGKERELVAAITSDVSTYYADSVKGRFTISRDNAKNTVYLQMNSLKPEDTAVYYCATTGYGSYVIYWGQGTQVTVSS,low polyreactivity
19,QVQLVESGGGLVQAGGSLRLSCPASGRILPRNAMGWYRQAPGKERELVAGISSDGSTNYADSVKGRFTISRDNAKNTVYLQMNSLKPEDTAVYYCAADGVYDPNLYGYWGQGTQVTVSS,low polyreactivity
20,QVQLVESGGGLVQAGGSLRLSCPASGSIFDLYAMGWYRQAPGKERELVASIRYSGGRTYYADSVKGRFTISRDNAKNTVYLQMNSLKPEDTAVYYCNRDGGYTFIMDYWGQGNQVTVSS,low polyreactivity
21,QVQLVESGGGLVQAGGSLRLSCPASGSIFPYYAMGCYRQAPGKERELVAAISSGDITDYADSVKGRFTISRDNAKNTVYLQMNSLKPEDTAVYYCAAATLSLYWPYLFRGSDYDYWGQGSQVTVSS,low polyreactivity

# Source: the nanobody polyreactivity screen of Harvey et al. (2022)
